# Measurements: publication PMC5484120 (Marine Drugs, 2017)
# Where no end group is shown, it is not given here. The star is where a group is joined. Cam = NC(=O)C*
# B1: GeXXVIIA-L (disulfide-free linear peptide of GeXXVIIA, Cys residues alkylated with iodoacetamide) (peptide)
# chain: ALMSTGTNYRLLKTC(Cam)RGSGRYC(Cam)RSPYDC(Cam)RRRYC(Cam)RRISDAC(Cam)V
# Assays:
# [1] = molecular target: human α9α10 nicotinic acetylcholine receptor (human) (UniProt Q9UGM1)
# [2] = molecular target: rodent α1β1εδ nicotinic acetylcholine receptor (rat α1, β1, δ; mouse ε) (rat | mouse) (UniProt P25108)
# [3] = molecular target: O-conotoxin GeXXVIIA, native form (disulfide-linked homodimer) (Conus generalis); experiment: mass spectrometry before and after reduction with DTT
# [4] = test system: α9α10 nAChR; conditions: cited from earlier work
# [5] = test system: rat models of neuropathic pain; conditions: in vivo; cited from earlier work
# [6] = test system: N-type Ca^2+ channel; conditions: cited from earlier work
molecule,measurement,setting,value
GeXXVIIA-L-Nter (N-terminal fragment of GeXXVIIA-L after Asp-N digestion) (peptide),IC50 of inhibition of ACh-evoked current of the receptor in Xenopus oocytes,[1],222 nM
same,IC50 of inhibition of ACh-evoked current of the receptor in Xenopus oocytes,[2],2190 nM
"O-conotoxin GeXXVIIA, native form (disulfide-linked homodimer) (peptide)",stoichiometry N,[3],2
Vc1.1,IC50,[4],19 nM
same,pain relief in rat models of neuropathic pain,[5],long lasting relief in rat models of neuropathic pain
ω-conotoxin MVIIA,N-type Ca2+ channel inhibition (in words),[6],selective N-type Ca^2+ channel inhibitor
B1,IC50 of inhibition of ACh-evoked current of the receptor in Xenopus oocytes,[2],774 nM
